The supplement of paper PMC6379048

Columns and labels:
Experiment in all cases: Kd (EC50 corrected by depletion factor)
[1] = biological target: RPS14 (UniProt P62263)
Summary of the method: (§1)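 HEK293-FT lysate (2.5 mg protein/well) was treated with free RNA oligos (0 nM to 30 μM) for 1 h at 4°C, then with the same oligos on NHS-Sepharose beads for 30 min at 4°C. Bound proteins were quantified by label-free LC-MS/MS relative to the control. EC50 came from a four-parameter log-logistic fit, and Kd is EC50 times a protein-dependent depletion factor.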

[2] = biological target: T1, UPF1 (UniProt Q92900)
T1 sequence: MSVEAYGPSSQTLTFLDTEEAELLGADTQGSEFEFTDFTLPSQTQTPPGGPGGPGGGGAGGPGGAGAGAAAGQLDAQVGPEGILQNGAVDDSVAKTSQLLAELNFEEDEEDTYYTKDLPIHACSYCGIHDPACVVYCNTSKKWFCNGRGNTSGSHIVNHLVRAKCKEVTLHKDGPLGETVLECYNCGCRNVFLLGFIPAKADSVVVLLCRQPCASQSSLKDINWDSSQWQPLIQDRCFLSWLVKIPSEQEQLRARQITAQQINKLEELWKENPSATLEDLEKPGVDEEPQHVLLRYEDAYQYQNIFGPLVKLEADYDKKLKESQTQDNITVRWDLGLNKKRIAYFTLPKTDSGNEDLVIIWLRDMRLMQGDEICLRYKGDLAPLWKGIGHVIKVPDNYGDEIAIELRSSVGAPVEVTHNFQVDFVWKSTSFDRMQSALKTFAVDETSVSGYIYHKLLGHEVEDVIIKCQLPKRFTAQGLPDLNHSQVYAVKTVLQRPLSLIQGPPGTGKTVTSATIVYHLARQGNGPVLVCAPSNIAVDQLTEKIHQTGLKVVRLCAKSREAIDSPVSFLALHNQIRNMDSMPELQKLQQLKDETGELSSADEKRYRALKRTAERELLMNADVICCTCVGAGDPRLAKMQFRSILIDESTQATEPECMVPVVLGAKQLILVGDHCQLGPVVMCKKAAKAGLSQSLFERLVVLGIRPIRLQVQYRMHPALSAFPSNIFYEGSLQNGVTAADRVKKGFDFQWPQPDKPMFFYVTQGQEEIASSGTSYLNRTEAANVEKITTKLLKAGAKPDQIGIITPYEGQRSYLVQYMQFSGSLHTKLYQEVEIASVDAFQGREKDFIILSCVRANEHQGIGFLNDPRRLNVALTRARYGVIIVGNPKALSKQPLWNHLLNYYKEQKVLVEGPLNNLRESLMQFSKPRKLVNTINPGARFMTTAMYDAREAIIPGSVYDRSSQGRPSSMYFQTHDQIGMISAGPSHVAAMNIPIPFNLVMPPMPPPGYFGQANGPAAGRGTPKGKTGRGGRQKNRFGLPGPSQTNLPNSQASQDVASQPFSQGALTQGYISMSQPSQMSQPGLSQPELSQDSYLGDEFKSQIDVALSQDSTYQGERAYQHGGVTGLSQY
Summary of the method: as §1

[3] = biological target: T2, CPSF7 (UniProt Q8N684)
T2 sequence: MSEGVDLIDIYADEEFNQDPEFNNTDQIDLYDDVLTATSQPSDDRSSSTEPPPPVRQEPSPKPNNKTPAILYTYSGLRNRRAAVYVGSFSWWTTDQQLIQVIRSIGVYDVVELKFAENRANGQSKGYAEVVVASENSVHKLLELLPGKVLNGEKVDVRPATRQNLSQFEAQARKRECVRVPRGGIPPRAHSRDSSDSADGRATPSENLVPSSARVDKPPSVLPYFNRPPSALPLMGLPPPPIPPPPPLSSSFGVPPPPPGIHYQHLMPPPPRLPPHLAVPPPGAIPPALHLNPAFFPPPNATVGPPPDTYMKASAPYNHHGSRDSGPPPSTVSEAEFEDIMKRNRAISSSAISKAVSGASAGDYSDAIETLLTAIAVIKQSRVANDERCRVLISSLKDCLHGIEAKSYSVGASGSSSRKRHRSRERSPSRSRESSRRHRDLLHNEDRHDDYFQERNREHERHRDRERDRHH
Summary of the method: as §1

[4] = biological target: T3, FUBP1 (UniProt Q96AE4)
T3 sequence: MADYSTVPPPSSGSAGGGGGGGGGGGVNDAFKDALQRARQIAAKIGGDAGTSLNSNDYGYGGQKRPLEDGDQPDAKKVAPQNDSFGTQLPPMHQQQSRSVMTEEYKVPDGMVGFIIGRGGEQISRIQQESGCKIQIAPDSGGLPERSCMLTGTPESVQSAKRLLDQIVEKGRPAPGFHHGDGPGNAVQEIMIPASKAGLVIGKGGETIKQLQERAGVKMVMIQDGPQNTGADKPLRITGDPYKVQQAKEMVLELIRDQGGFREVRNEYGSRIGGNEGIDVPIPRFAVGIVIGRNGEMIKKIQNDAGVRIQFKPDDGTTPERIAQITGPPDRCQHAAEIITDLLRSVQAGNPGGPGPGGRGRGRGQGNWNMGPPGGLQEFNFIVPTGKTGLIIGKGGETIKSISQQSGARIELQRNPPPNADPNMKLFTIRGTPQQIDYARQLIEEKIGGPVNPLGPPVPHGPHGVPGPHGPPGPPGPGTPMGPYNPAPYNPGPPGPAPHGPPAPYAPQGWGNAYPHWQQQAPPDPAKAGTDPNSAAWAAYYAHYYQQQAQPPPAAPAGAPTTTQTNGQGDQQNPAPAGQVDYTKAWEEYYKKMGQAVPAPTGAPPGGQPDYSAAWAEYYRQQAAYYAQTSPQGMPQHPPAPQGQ
Summary of the method: as §1

Sequence | Kd [1] [µM] | Kd [2] [µM] | Kd [3] [µM] | Kd [4] [µM]
CUGUCCU | 0.126 |  |  | 
AAUAAA |  | 2.64 | 2.1 | 0.673
